Laboratory results reported in publication PMC9889962.

Biological target: recombinant human FcγRI receptor (CD64) (UniProt P12314)
Assay: SPR
Settings: immobilized human FcγRI (CD64); parent: est. 100; read off a plot

Chain of recombinant human FcγRI receptor (CD64) (P12314 16-374): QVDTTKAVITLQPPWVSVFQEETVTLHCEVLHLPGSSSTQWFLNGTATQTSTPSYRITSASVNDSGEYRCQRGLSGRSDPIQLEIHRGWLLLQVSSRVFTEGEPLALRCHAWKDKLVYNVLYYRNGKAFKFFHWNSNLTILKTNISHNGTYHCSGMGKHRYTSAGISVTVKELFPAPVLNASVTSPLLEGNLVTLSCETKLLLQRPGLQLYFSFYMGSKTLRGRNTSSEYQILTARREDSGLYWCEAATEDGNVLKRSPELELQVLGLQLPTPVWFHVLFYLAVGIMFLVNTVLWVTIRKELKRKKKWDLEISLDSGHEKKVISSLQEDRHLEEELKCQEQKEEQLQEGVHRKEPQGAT

Going from IgG1 (control) LALAKA to IgG1 (control) LGGR, the percent of parent falls from 26% to 6%.

Compared with IgG1 (control) FES, IgG1 (control) LALE is lower in percent of parent: 21% for the first, 8% for the second.

Compared with IgG1 (control) Agly, IgG1 (control) Sigma is lower in percent of parent: 24% for the first, 3.5% for the second.

Going from IgG1 (control) LALA to IgG1 (control) FQQ, the percent of parent rises from 27% to 32%.

Going from IgG1 (control) DAPA to IgG1 (control) LAGA, the percent of parent falls from 34% to 8.5%.
